Source: patent US20120172293A1 (Takeda / Millennium, published 2012)
Non-standard residues stand in square brackets, D forms with d. *: point of attachment. 4‑guanidinomethylbenzoyl = N=C(N)NCc1ccc(C(=O)*)cc1; βHOAla = beta-homoalanine (β-HOAla), D- or L-form; 4Pal = N[C@@H](Cc1ccncc1)C(=O)O; d(pGlu) = O=C1CC[C@H](C(=O)O)N1; Cha = N[C@@H](CC1CCCCC1)C(=O)O; Isonicotinoyl = O=C(c1ccncc1)*; Aipe = 3-aminobutanoic acid; dIva = CC[C@@](C)(N)C(=O)O; Iva = CC[C@](C)(N)C(=O)O; Nle = CCCC[C@H](N)C(=O)O; Aib = CC(C)(N)C(=O)O

B1: 4-Pyridinecarbonyl-[Glu23, D-Pro24, Nle25, Pya(4)26, Cha27,36, Aib28,31, Lys30]-PYY(23-36) (peptide)
peptide: Isonicotinoyl-E[dP][Nle][4Pal][Cha][Aib]NK[Aib]TRQR[Cha]-NH2
SMILES: CCCC[C@H](NC(=O)[C@H]1CCCN1C(=O)[C@H](CCC(=O)O)NC(=O)c1ccncc1)C(=O)N[C@@H](Cc1ccncc1)C(=O)N[C@@H](CC1CCCCC1)C(=O)NC(C)(C)C(=O)N[C@@H](CC(N)=O)C(=O)N[C@@H](CCCCN)C(=O)NC(C)(C)C(=O)N[C@H](C(=O)N[C@@H](CCCNC(=N)N)C(=O)N[C@@H](CCC(N)=O)C(=O)N[C@@H](CCCNC(=N)N)C(=O)N[C@@H](CC1CCCCC1)C(N)=O)[C@@H](C)O
B2: Ac-[Aib24,28,31, Pya(4)26, Cha27,36, Lys30]-PYY(23-36) (peptide)
peptide: Ac-S[Aib]R[4Pal][Cha][Aib]NK[Aib]TRQR[Cha]-NH2
SMILES: CC(=O)N[C@@H](CO)C(=O)NC(C)(C)C(=O)N[C@@H](CCCNC(=N)N)C(=O)N[C@@H](Cc1ccncc1)C(=O)N[C@@H](CC1CCCCC1)C(=O)NC(C)(C)C(=O)N[C@@H](CC(N)=O)C(=O)N[C@@H](CCCCN)C(=O)NC(C)(C)C(=O)N[C@H](C(=O)N[C@@H](CCCNC(=N)N)C(=O)N[C@@H](CCC(N)=O)C(=O)N[C@@H](CCCNC(=N)N)C(=O)N[C@@H](CC1CCCCC1)C(N)=O)[C@@H](C)O
B3: Ac-[D-Pro24, Aib25,28,31, Cha27,36, Lys30]-PYY(23-36) (peptide)
peptide: Ac-S[dP][Aib]H[Cha][Aib]NK[Aib]TRQR[Cha]-NH2
SMILES: CC(=O)N[C@@H](CO)C(=O)N1CCC[C@@H]1C(=O)NC(C)(C)C(=O)N[C@@H](Cc1c[nH]cn1)C(=O)N[C@@H](CC1CCCCC1)C(=O)NC(C)(C)C(=O)N[C@@H](CC(N)=O)C(=O)N[C@@H](CCCCN)C(=O)NC(C)(C)C(=O)N[C@H](C(=O)N[C@@H](CCCNC(=N)N)C(=O)N[C@@H](CCC(N)=O)C(=O)N[C@@H](CCCNC(=N)N)C(=O)N[C@@H](CC1CCCCC1)C(N)=O)[C@@H](C)O
B4: Ac-[D-Pro24, Pya(4)26, Cha27,36, Aib28,31, Lys30]-PYY(24-36) (peptide)
peptide: Ac-[dP]R[4Pal][Cha][Aib]NK[Aib]TRQR[Cha]-NH2
SMILES: CC(=O)N1CCC[C@@H]1C(=O)N[C@@H](CCCNC(=N)N)C(=O)N[C@@H](Cc1ccncc1)C(=O)N[C@@H](CC1CCCCC1)C(=O)NC(C)(C)C(=O)N[C@@H](CC(N)=O)C(=O)N[C@@H](CCCCN)C(=O)NC(C)(C)C(=O)N[C@H](C(=O)N[C@@H](CCCNC(=N)N)C(=O)N[C@@H](CCC(N)=O)C(=O)N[C@@H](CCCNC(=N)N)C(=O)N[C@@H](CC1CCCCC1)C(N)=O)[C@@H](C)O
B5: Ac-[D-Pro24, Aib25,28,31, Pya(4)26, Cha27,36, Lys30]-PYY(23-36) (peptide)
peptide: Ac-S[dP][Aib][4Pal][Cha][Aib]NK[Aib]TRQR[Cha]-NH2
SMILES: CC(=O)N[C@@H](CO)C(=O)N1CCC[C@@H]1C(=O)NC(C)(C)C(=O)N[C@@H](Cc1ccncc1)C(=O)N[C@@H](CC1CCCCC1)C(=O)NC(C)(C)C(=O)N[C@@H](CC(N)=O)C(=O)N[C@@H](CCCCN)C(=O)NC(C)(C)C(=O)N[C@H](C(=O)N[C@@H](CCCNC(=N)N)C(=O)N[C@@H](CCC(N)=O)C(=O)N[C@@H](CCCNC(=N)N)C(=O)N[C@@H](CC1CCCCC1)C(N)=O)[C@@H](C)O
B6: Ac-[D-Pro24, Iva25, Pya(4)26, Cha27,36, Aib28,31, Lys30]-PYY(23-36) (peptide)
peptide: Ac-S[dP][Iva][4Pal][Cha][Aib]NK[Aib]TRQR[Cha]-NH2
SMILES: CC[C@](C)(NC(=O)[C@H]1CCCN1C(=O)[C@H](CO)NC(C)=O)C(=O)N[C@@H](Cc1ccncc1)C(=O)N[C@@H](CC1CCCCC1)C(=O)NC(C)(C)C(=O)N[C@@H](CC(N)=O)C(=O)N[C@@H](CCCCN)C(=O)NC(C)(C)C(=O)N[C@H](C(=O)N[C@@H](CCCNC(=N)N)C(=O)N[C@@H](CCC(N)=O)C(=O)N[C@@H](CCCNC(=N)N)C(=O)N[C@@H](CC1CCCCC1)C(N)=O)[C@@H](C)O
B7: 4-Guanidinomethylbenzoyl-[Iva25, Cha27,36, Aib28,31, Lys30]-PYY(25-36) (peptide)
peptide: {4‑guanidinomethylbenzoyl}-[Iva]H[Cha][Aib]NK[Aib]TRQR[Cha]-NH2
SMILES: CC[C@](C)(NC(=O)c1ccc(CNC(=N)N)cc1)C(=O)N[C@@H](Cc1c[nH]cn1)C(=O)N[C@@H](CC1CCCCC1)C(=O)NC(C)(C)C(=O)N[C@@H](CC(N)=O)C(=O)N[C@@H](CCCCN)C(=O)NC(C)(C)C(=O)N[C@H](C(=O)N[C@@H](CCCNC(=N)N)C(=O)N[C@@H](CCC(N)=O)C(=O)N[C@@H](CCCNC(=N)N)C(=O)N[C@@H](CC1CCCCC1)C(N)=O)[C@@H](C)O
B8: Ac-[D-Pro24, Pya(4)26, Cha27,36, Aib28,31, Arg30]-PYY(23-36) (peptide)
peptide: Ac-S[dP]R[4Pal][Cha][Aib]NR[Aib]TRQR[Cha]-NH2
SMILES: CC(=O)N[C@@H](CO)C(=O)N1CCC[C@@H]1C(=O)N[C@@H](CCCNC(=N)N)C(=O)N[C@@H](Cc1ccncc1)C(=O)N[C@@H](CC1CCCCC1)C(=O)NC(C)(C)C(=O)N[C@@H](CC(N)=O)C(=O)N[C@@H](CCCNC(=N)N)C(=O)NC(C)(C)C(=O)N[C@H](C(=O)N[C@@H](CCCNC(=N)N)C(=O)N[C@@H](CCC(N)=O)C(=O)N[C@@H](CCCNC(=N)N)C(=O)N[C@@H](CC1CCCCC1)C(N)=O)[C@@H](C)O
B9: Ac-[D-Pro24, Iva25, Cha27,36, Aib28,31, Lys30]-PYY(23-36) (peptide)
peptide: Ac-S[dP][Iva]H[Cha][Aib]NK[Aib]TRQR[Cha]-NH2
SMILES: CC[C@](C)(NC(=O)[C@H]1CCCN1C(=O)[C@H](CO)NC(C)=O)C(=O)N[C@@H](Cc1c[nH]cn1)C(=O)N[C@@H](CC1CCCCC1)C(=O)NC(C)(C)C(=O)N[C@@H](CC(N)=O)C(=O)N[C@@H](CCCCN)C(=O)NC(C)(C)C(=O)N[C@H](C(=O)N[C@@H](CCCNC(=N)N)C(=O)N[C@@H](CCC(N)=O)C(=O)N[C@@H](CCCNC(=N)N)C(=O)N[C@@H](CC1CCCCC1)C(N)=O)[C@@H](C)O
B10: Ac-[Iva24, Pya(4)26, Cha27,36, Aib28,31, Lys30]-PYY(23-36) (peptide)
peptide: Ac-S[Iva]R[4Pal][Cha][Aib]NK[Aib]TRQR[Cha]-NH2
SMILES: CC[C@](C)(NC(=O)[C@H](CO)NC(C)=O)C(=O)N[C@@H](CCCNC(=N)N)C(=O)N[C@@H](Cc1ccncc1)C(=O)N[C@@H](CC1CCCCC1)C(=O)NC(C)(C)C(=O)N[C@@H](CC(N)=O)C(=O)N[C@@H](CCCCN)C(=O)NC(C)(C)C(=O)N[C@H](C(=O)N[C@@H](CCCNC(=N)N)C(=O)N[C@@H](CCC(N)=O)C(=O)N[C@@H](CCCNC(=N)N)C(=O)N[C@@H](CC1CCCCC1)C(N)=O)[C@@H](C)O
B11: [D-pGlu24, Pya(4)26, Cha27,36, Aib28,31, Lys30]-PYY(24-36) (peptide)
peptide: [d(pGlu)]R[4Pal][Cha][Aib]NK[Aib]TRQR[Cha]-NH2
SMILES: C[C@@H](O)[C@H](NC(=O)C(C)(C)NC(=O)[C@H](CCCCN)NC(=O)[C@H](CC(N)=O)NC(=O)C(C)(C)NC(=O)[C@H](CC1CCCCC1)NC(=O)[C@H](Cc1ccncc1)NC(=O)[C@H](CCCNC(=N)N)NC(=O)[C@H]1CCC(=O)N1)C(=O)N[C@@H](CCCNC(=N)N)C(=O)N[C@@H](CCC(N)=O)C(=O)N[C@@H](CCCNC(=N)N)C(=O)N[C@@H](CC1CCCCC1)C(N)=O
B12: Ac-[D-Iva24, Pya(4)26, Cha27,36, Aib28,31, Lys30]-PYY(23-36) (peptide)
peptide: Ac-S[dIva]R[4Pal][Cha][Aib]NK[Aib]TRQR[Cha]-NH2
SMILES: CC[C@@](C)(NC(=O)[C@H](CO)NC(C)=O)C(=O)N[C@@H](CCCNC(=N)N)C(=O)N[C@@H](Cc1ccncc1)C(=O)N[C@@H](CC1CCCCC1)C(=O)NC(C)(C)C(=O)N[C@@H](CC(N)=O)C(=O)N[C@@H](CCCCN)C(=O)NC(C)(C)C(=O)N[C@H](C(=O)N[C@@H](CCCNC(=N)N)C(=O)N[C@@H](CCC(N)=O)C(=O)N[C@@H](CCCNC(=N)N)C(=O)N[C@@H](CC1CCCCC1)C(N)=O)[C@@H](C)O

Columns and labels:
[1] = molecular target: human Y2 receptor (human) (UniProt P49146); experiment: RBA: displacement of [125I]-PYY from hY2R/CHO membranes
[2] = molecular target: human Y2 receptor (human) (UniProt P49146); experiment: cell-based or functional assay

human Y2 receptor (human), sequence (P49146 whole entry): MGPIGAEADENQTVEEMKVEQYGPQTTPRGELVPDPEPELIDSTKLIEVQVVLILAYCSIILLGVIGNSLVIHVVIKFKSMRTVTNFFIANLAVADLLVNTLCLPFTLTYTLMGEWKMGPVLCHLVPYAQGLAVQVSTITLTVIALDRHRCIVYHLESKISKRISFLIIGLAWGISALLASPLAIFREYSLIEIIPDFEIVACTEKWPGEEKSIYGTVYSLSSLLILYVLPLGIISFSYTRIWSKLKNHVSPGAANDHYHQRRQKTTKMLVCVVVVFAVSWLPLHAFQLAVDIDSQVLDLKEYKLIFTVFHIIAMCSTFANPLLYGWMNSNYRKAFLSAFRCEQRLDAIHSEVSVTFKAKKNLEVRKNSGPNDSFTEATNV

Binder | IC50 Ratio (IC50 compound/IC50 PYY(3-36)) [1] | GBA EC50 Ratio ([35S]GTPγS binding) (EC50 compound/EC50 PYY(3-36)) [2]
B1 | 8.1 | 5.7
B2 | 0.81 | 1.1
B3 | 24 | 11
B4 | 0.68 | 0.56
B5 | 8.4 | 1.7
Ac-S[Aipe]R[4Pal][Cha][Aib]NK[Aib]TRQR[Cha]-NH2 [Ac-[Aipe24, Pya(4)26, Cha27,36, Aib28,31, Lys30]-PYY(23-36)] | 1.3 | 2
B6 | 2.9 | 2.9
B7 | 6.3 | 2.8
B8 | 1.1 | 1.8
Ac-S[βHOAla]R[4Pal][Cha][Aib]NK[Aib]TRQR[Cha]-NH2 (also: former peak isomer, β-HOAla configuration D or L not assigned) [Ac-[β-HOAla24, Pya(4)26, Cha27,36, Aib28,31, Lys30]-PYY(23-36) former peak] | 2.4 | 2.8
B9 | 8.8 | 5.2
B10 | 0.58 | 0.91
B11 | 2 | 1.1
B12 | 0.39 | 1.3
Ac-S[βHOAla]R[4Pal][Cha][Aib]NK[Aib]TRQR[Cha]-NH2 (also: later peak isomer, β-HOAla configuration D or L not assigned) [Ac-[β-HOAla24, Pya(4)26, Cha27,36, Aib28,31, Lys30]-PYY(23-36) later peak] | 0.85 | 1.9
